Km and Vmax data for 1 protein are collected here from patent publication US7329517B2, “Escapin protein, a broadly antimicrobial compound from ink of the sea hare Aplysia californica, and uses thereof” (priority 2004, dated 2008).

Substrate in data set [1]: N=C(N)NCCC[C@H](N)C(=O)O
As to the kind of experiment: L-amino acid oxidase (LAAO) enzyme-coupled assay of purified escapin. It counts as biochemical, Aplysia californica. As to conditions: other: horseradish peroxidase/o-dianisidine coupled assay, 0.1 M Tris-HCl pH 7.6, room temperature, O.D. 436 nm, Lineweaver-Burk plot. The text has this: (§1) Animals. Sea hares, Aplysia californica, were collected in California or provided by the NIH National Resource for Aplysia Facility (http://www.rsmas.miami.edu/groups/sea-hares/). They were maintained in aquaria containing recirculating, filtered, and aerated artificial sea water (Instant Ocean™: Aquarium Systems), and fed red alga (Gracilaria ferox). Ink gland processing. The ink glands were surgically removed from sea hares, gently squeezed in a Petri dish with the blunt end of a scalpel handle to release most of the ink secretion from the individual vesicles contained in the gland. The secretion was then pipetted to a microfuge tube and frozen at −80° C. until needed. Opaline gland processing. The opaline glands were surgically removed from sea hares, gently blotted dry on a Kimwipe® to remove seawater (since water causes opaline secretion to polymerize) and transferred to an ultracentrifuge tube. This was centrifuged at 30,000 g for 30 min at 4° C. (Beckman Optima TLX Ultracentrifuge). The pure opaline was then pipetted away from the gland tissue, transferred to a microfuge tube, and frozen at −80° C. until needed. Purification of proteins from purple ink. Proteins were isolated and purified using an ÄKTA 100 Automated FPLC (Amersham Pharmacia Biotech). A preparative grade Hi-Load Superdex 200 16/60 column (Pharmacia) or an in-house-packed Sephacryl 300 HR 26/60 column was used for initial size separation with fractions collected in an automated fraction collector. Fractions identified to have activity by bacterial assay were concentrated using a Biomax 5K NMWL membrane Ultrafree Centrifugal Filter Device (Millipore). Active fractions were further purified on a cation exchange Mono S column, and fractions were collected, assayed, concentrated, and frozen at −80° C. One purified protein of interest was named “escapin” and was bright yellow. Escapin's concentration was determined by Bradford assay using bovine serum albumen (BSA) as a standard. The molecular mass of purified escapin was determined by gel filtration using a Superose-6 10/30 column (Amersham Pharmacia Biotech) eluted with 50 mM potassium phosphate buffer (pH 7.2) containing 150 mM KCl at a flow rate of 0.5 ml/min. The molecular weight markers were BSA (67 kDa), ovalbumen (43 kDa), and chymotrypsinogen A (25 kDa). Protein sequencing. Aplysia californica ink was analyzed for protein content using sodium dodecyl sulfate polyacrylamide gel electrophoresis (SDS-PAGE) on 12% gels. […] This band was blotted from the polyacrylamide gel to a PVDF membrane using CAPS transfer buffer and determined by protein microsequencing and proteomic mass spectrometry (University of Massachusetts Medical School Proteomic Mass Spectrometry Lab: http://www.umassmed.edu/proteomic/leszyk). […]

Substrate in data set [2]: NCCCC[C@H](N)C(=O)O
Described as above. In kind it is biochemical, Aplysia californica. As to conditions: other: horseradish peroxidase/o-dianisidine coupled assay, 0.1 M Tris-HCl pH 7.6, room temperature, O.D. 436 nm, Lineweaver-Burk plot.
From the text: as §1

B1: Aplysia californica escapin (L-amino acid oxidase), wild type purified from ink, SEQ ID NO:1 (Aplysia californica) (protein)
chain: DGVCRNRRQCNKEVCGSSYDVAIVGAGPGGANSAYMLRESGLDIAVFEYSDRVGGRLFTYQLPNTPDVNLEIGGMRFIEGAMHRLWKVISELGLTPKVFKEGFGKEGRQRFYLRGQSLTKKQVKSGDVPYDLSPEEKANQGRLVEYYLEKLTGLQLNGGPLKREVALKLTVPDGRFLYDLTFDEALDLVASPEGKEFARDTHVFTSEVTLDASAISIFDDHLGEDYYGSEIYTLEEGMSSVPQGLLQTFLDAAKSNEFFPNNHLKALRRRTNGQYVLYFEPTTSKDGQTTINYLEPLKVVCAQRVILAMPVYALRQLDWSQLRNDRATQAYRAVRPMPASKVFMTFDQPWWLQNERKSWVTKSDALFSQMYDWQKSEASGDYILIASYADGLKAQYLRELKNQGEDIPGSDPGYNQVTVPLKDAILEHLTEAYGVERDSIPEPVTAASQFWTDYPFGCGWITWRAGYHFDDVISTMRRPSLKDEVYVVGSDYSWGLISSWIEGALETSENVINDYFL
notes: a signal peptide cleavage site between 18 and 19 amino acid residues was predicted by SignalIP; from tissue; host or cells: ink (ink gland secretion) of Aplysia californica
A word on the Km: it is the concentration of substrate that gives half-maximal velocity. As usually defined, the Vmax is the top rate of the reaction or transport when substrate is in excess. Regarding B1, in data set [1], the Michaelis-Menten constant (Km) worked out at 25 µM and the Vmax worked out at 1.56 µM/s. In addition, in data set [2], the Km was 31 µM and the Vmax was found to be 1.92 µM/s.
